Like-named read-outs stand apart in the source and are kept apart here.
T1: full-length C. elegans MEI-1 (C. elegans, UniProt P34808 1-472)
T1 sequence (looked up): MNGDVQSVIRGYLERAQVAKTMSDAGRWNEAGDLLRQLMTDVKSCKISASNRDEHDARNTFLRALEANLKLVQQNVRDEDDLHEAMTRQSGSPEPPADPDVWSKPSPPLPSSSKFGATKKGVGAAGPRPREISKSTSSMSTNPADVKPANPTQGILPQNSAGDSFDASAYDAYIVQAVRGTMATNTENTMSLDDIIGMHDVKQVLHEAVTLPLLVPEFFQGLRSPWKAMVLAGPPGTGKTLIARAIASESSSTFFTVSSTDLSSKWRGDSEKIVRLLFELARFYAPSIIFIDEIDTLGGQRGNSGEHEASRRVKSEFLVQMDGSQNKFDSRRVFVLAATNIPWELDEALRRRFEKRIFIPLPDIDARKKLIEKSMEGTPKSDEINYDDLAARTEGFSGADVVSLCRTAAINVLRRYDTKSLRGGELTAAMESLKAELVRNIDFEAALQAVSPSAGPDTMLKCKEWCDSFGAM

B1: full length human KATNAL1 (E308Q) (enzyme, UniProt Q9BW62 1-490, looked up)
chain: MNLAEICDNAKKGREYALLGNYDSSMVYYQGVMQQIQRHCQSVRDPAIKGKWQQVRQELLEEYEQVKSIVSTLESFKIDKPPDFPVSCQDEPFRDPAVWPPPVPAEHRAPPQIRRPNREVRPLRKEMAGVGARGPVGRAHPISKSEKPSTSRDKDYRARGRDDKGRKNMQDGASDGEMPKFDGAGYDKDLVEALERDIVSRNPSIHWDDIADLEEAKKLLREAVVLPMWMPDFFKGIRRPWKGVLMVGPPGTGKTMLAKAVATECGTTFFNVSSSTLTSKYRGESEKLVRLLFEMARFYAPTTIFIDQIDSICSRRGTSDEHEASRRVKSELLIQMDGVGGALENDDPSKMVMVLAATNFPWDIDEALRRRLEKRIYIPLPTAKGRAELLKINLREVELDPDIQLEDIAEKIEGYSGADITNVCRDASLMAMRRRINGLSPEEIRALSKEELQMPVTKGDFELALKKIAKSVSAADLEKYEKWMVEFGSA

Experiments:
Test in all cases: SEC-MALS
SEC-MALS [1] = molecular target: the molecule itself
SEC-MALS [2] = molecular target: the molecule itself; remark: listed apart in the source
[3] = molecular target: full length human KATNAL1 (human, UniProt Q9BW62 1-490)
[4] = molecular target: B1
[5] = molecular target: T1, full-length C. elegans MEI-1

Binder | stoichiometry N (SEC-MALS [1]) | stoichiometry N (SEC-MALS [2]) | further results
wild-type KATNAL1/B1-con80 complex (full length human KATNAL1 with the con80 domain, residues 411-655, of human KATNB1) (complex) chain 1: MNLAEICDNAKKGREYALLGNYDSSMVYYQGVMQQIQRHCQSVRDPAIKGKWQQVRQELLEEYEQVKSIVSTLESFKIDKPPDFPVSCQDEPFRDPAVWPPPVPAEHRAPPQIRRPNREVRPLRKEMAGVGARGPVGRAHPISKSEKPSTSRDKDYRARGRDDKGRKNMQDGASDGEMPKFDGAGYDKDLVEALERDIVSRNPSIHWDDIADLEEAKKLLREAVVLPMWMPDFFKGIRRPWKGVLMVGPPGTGKTMLAKAVATECGTTFFNVSSSTLTSKYRGESEKLVRLLFEMARFYAPTTIFIDEIDSICSRRGTSDEHEASRRVKSELLIQMDGVGGALENDDPSKMVMVLAATNFPWDIDEALRRRLEKRIYIPLPTAKGRAELLKINLREVELDPDIQLEDIAEKIEGYSGADITNVCRDASLMAMRRRINGLSPEEIRALSKEELQMPVTKGDFELALKKIAKSVSAADLEKYEKWMVEFGSA chain 2: AATAKEAAKPSPAMDVQFPVPNLEVLPRPPVVASTPAPKAEPAIIPATRNEPIGLKASDFLPAVKIPQQAELVDEDAMSQIRKGHDTMCVVLTSRHKNLDTVRAVWTMGDIKTSVDSAVAINDLSVVVDLLNIVNQKASLWKLDLCTTVLPQIEKLLQSKYESYVQTGCTSLKLILQRFLPLITDMLAAPPSVGVDISREERLHKCRLCYKQLKSISGLVKSKSGLSGRHGSTFRELHLLMASLD | 2 |  | 
KATNAL1 (E308Q)/B1-con80 complex (complex, human) chain 1: MNLAEICDNAKKGREYALLGNYDSSMVYYQGVMQQIQRHCQSVRDPAIKGKWQQVRQELLEEYEQVKSIVSTLESFKIDKPPDFPVSCQDEPFRDPAVWPPPVPAEHRAPPQIRRPNREVRPLRKEMAGVGARGPVGRAHPISKSEKPSTSRDKDYRARGRDDKGRKNMQDGASDGEMPKFDGAGYDKDLVEALERDIVSRNPSIHWDDIADLEEAKKLLREAVVLPMWMPDFFKGIRRPWKGVLMVGPPGTGKTMLAKAVATECGTTFFNVSSSTLTSKYRGESEKLVRLLFEMARFYAPTTIFIDQIDSICSRRGTSDEHEASRRVKSELLIQMDGVGGALENDDPSKMVMVLAATNFPWDIDEALRRRLEKRIYIPLPTAKGRAELLKINLREVELDPDIQLEDIAEKIEGYSGADITNVCRDASLMAMRRRINGLSPEEIRALSKEELQMPVTKGDFELALKKIAKSVSAADLEKYEKWMVEFGSA chain 2: AATAKEAAKPSPAMDVQFPVPNLEVLPRPPVVASTPAPKAEPAIIPATRNEPIGLKASDFLPAVKIPQQAELVDEDAMSQIRKGHDTMCVVLTSRHKNLDTVRAVWTMGDIKTSVDSAVAINDLSVVVDLLNIVNQKASLWKLDLCTTVLPQIEKLLQSKYESYVQTGCTSLKLILQRFLPLITDMLAAPPSVGVDISREERLHKCRLCYKQLKSISGLVKSKSGLSGRHGSTFRELHLLMASLD | 6 | 2 | 
con80 domain (residues 411-655) of human KATNB1 (domain or fragment, UniProt Q9BVA0 411-655, looked up) AATAKEAAKPSPAMDVQFPVPNLEVLPRPPVVASTPAPKAEPAIIPATRNEPIGLKASDFLPAVKIPQQAELVDEDAMSQIRKGHDTMCVVLTSRHKNLDTVRAVWTMGDIKTSVDSAVAINDLSVVVDLLNIVNQKASLWKLDLCTTVLPQIEKLLQSKYESYVQTGCTSLKLILQRFLPLITDMLAAPPSVGVDISREERLHKCRLCYKQLKSISGLVKSKSGLSGRHGSTFRELHLLMASLD |  |  | binding result [3]: binds; binding result [4]: binds
B1 | 6 |  | 
full-length C. elegans MEI-2 (natural protein, UniProt O44740 1-280, looked up) MSGLDDRKKLTHAKNRKPLNDIPKSAENRPNTRSTSSRRGAEKDVPITFIGSSRTVKADLPEFTNTRSRRPLHSESKKELSRNPVSRGEEHSSSLPKSSPESSVSVMSSNASLWSACTEEVNKIGVCAKRESRNLRVYKMKSFTSNMEQILSNDNQLAPTVIRILNSRNSWCLNSCHACLTFIMENITSDNYGKRSACLKALASITNSLLDTIIGFASTKTRRIGVDVVAEERAAKATECIHNFRKIVKNRDKIYKQIDQETIYKLDAILERLKKVSSHK |  |  | binding result [5]: binds
C. elegans MEI-1/MEI-2 complex (full-length MEI-1 with full-length MEI-2) (complex) chain 1: MNGDVQSVIRGYLERAQVAKTMSDAGRWNEAGDLLRQLMTDVKSCKISASNRDEHDARNTFLRALEANLKLVQQNVRDEDDLHEAMTRQSGSPEPPADPDVWSKPSPPLPSSSKFGATKKGVGAAGPRPREISKSTSSMSTNPADVKPANPTQGILPQNSAGDSFDASAYDAYIVQAVRGTMATNTENTMSLDDIIGMHDVKQVLHEAVTLPLLVPEFFQGLRSPWKAMVLAGPPGTGKTLIARAIASESSSTFFTVSSTDLSSKWRGDSEKIVRLLFELARFYAPSIIFIDEIDTLGGQRGNSGEHEASRRVKSEFLVQMDGSQNKFDSRRVFVLAATNIPWELDEALRRRFEKRIFIPLPDIDARKKLIEKSMEGTPKSDEINYDDLAARTEGFSGADVVSLCRTAAINVLRRYDTKSLRGGELTAAMESLKAELVRNIDFEAALQAVSPSAGPDTMLKCKEWCDSFGAM chain 2: MSGLDDRKKLTHAKNRKPLNDIPKSAENRPNTRSTSSRRGAEKDVPITFIGSSRTVKADLPEFTNTRSRRPLHSESKKELSRNPVSRGEEHSSSLPKSSPESSVSVMSSNASLWSACTEEVNKIGVCAKRESRNLRVYKMKSFTSNMEQILSNDNQLAPTVIRILNSRNSWCLNSCHACLTFIMENITSDNYGKRSACLKALASITNSLLDTIIGFASTKTRRIGVDVVAEERAAKATECIHNFRKIVKNRDKIYKQIDQETIYKLDAILERLKKVSSHK |  | 2 | 
